Key:
Assay in all cases: Kinase Profiling Assay
Assay type in all cases: biochemical
Details in all cases: for % activity: 100 μM
ZAP-70(h) = target: T1, ZAP-70(h) (Homo sapiens, UniProt P43403)
T1 sequence (P43403 1-619): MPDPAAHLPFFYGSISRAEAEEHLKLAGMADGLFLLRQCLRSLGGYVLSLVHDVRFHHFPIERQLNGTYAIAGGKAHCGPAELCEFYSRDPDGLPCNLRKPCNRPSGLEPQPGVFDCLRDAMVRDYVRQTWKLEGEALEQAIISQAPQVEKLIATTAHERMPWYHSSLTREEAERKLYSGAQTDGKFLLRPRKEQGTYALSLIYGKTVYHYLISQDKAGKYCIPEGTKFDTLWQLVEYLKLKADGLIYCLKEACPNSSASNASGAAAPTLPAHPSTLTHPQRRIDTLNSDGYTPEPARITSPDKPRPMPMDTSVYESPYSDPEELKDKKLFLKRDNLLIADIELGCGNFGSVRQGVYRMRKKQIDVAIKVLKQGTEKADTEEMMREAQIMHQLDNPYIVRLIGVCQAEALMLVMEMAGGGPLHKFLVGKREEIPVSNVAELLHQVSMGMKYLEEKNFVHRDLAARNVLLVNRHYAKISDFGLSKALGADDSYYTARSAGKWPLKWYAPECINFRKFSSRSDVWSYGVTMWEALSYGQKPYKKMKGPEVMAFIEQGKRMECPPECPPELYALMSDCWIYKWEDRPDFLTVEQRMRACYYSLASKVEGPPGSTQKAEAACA

TAO2(h) = target: T2, TAO2(h) (Homo sapiens, UniProt Q9UL54)
T2 sequence (Q9UL54 1-1235): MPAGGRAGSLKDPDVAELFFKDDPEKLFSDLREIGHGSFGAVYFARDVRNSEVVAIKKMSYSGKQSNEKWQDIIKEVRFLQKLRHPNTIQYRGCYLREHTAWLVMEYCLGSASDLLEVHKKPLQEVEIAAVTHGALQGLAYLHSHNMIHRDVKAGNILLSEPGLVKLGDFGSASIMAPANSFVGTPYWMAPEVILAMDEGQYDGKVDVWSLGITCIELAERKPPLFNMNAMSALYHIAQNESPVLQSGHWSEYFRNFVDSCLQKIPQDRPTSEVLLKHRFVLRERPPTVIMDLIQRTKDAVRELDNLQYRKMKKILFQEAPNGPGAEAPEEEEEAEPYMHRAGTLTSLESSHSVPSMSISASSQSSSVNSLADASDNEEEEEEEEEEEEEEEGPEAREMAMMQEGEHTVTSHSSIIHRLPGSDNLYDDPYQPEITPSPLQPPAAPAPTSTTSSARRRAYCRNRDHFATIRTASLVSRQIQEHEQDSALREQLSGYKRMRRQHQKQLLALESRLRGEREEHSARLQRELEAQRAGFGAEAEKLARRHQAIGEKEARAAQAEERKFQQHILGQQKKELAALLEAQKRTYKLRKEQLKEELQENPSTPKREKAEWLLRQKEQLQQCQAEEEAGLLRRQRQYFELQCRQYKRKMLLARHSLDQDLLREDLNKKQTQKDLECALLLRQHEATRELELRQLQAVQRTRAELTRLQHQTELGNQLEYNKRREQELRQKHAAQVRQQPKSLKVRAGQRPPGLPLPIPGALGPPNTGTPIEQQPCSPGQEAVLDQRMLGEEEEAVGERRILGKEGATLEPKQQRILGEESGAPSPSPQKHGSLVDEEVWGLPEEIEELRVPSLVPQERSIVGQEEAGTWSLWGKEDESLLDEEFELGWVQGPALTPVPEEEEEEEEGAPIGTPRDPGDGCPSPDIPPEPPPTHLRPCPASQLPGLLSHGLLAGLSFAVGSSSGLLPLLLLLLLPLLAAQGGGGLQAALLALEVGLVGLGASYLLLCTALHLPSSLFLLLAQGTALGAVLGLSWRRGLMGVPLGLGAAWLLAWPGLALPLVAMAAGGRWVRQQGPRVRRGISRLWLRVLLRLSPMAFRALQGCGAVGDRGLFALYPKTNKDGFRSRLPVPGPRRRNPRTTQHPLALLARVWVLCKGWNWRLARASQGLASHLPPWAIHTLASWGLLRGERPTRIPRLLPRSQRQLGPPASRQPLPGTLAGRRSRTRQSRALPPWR

PAK4(h) = PAK4(h) (Homo sapiens, UniProt O96013)
PAK4(h), sequence (O96013 whole entry): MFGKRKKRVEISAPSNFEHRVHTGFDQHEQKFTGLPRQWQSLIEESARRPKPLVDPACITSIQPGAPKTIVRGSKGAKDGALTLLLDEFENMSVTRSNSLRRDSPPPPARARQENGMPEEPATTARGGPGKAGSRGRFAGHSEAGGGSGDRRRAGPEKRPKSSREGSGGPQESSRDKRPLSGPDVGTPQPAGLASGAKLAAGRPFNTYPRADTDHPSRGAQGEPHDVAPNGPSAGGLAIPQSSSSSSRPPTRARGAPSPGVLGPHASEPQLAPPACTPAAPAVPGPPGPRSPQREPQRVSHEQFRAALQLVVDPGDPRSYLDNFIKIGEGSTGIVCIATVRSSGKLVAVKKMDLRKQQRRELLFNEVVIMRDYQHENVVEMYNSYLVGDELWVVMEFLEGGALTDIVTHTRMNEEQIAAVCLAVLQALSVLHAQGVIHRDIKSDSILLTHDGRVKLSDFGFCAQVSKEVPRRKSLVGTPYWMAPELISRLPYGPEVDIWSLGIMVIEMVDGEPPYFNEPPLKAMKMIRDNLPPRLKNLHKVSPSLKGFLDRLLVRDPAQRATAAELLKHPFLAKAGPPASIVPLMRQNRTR

ErbB4(h) = ErbB4(h) (Homo sapiens, UniProt Q15303)
ErbB4(h), sequence (Q15303 26-1308): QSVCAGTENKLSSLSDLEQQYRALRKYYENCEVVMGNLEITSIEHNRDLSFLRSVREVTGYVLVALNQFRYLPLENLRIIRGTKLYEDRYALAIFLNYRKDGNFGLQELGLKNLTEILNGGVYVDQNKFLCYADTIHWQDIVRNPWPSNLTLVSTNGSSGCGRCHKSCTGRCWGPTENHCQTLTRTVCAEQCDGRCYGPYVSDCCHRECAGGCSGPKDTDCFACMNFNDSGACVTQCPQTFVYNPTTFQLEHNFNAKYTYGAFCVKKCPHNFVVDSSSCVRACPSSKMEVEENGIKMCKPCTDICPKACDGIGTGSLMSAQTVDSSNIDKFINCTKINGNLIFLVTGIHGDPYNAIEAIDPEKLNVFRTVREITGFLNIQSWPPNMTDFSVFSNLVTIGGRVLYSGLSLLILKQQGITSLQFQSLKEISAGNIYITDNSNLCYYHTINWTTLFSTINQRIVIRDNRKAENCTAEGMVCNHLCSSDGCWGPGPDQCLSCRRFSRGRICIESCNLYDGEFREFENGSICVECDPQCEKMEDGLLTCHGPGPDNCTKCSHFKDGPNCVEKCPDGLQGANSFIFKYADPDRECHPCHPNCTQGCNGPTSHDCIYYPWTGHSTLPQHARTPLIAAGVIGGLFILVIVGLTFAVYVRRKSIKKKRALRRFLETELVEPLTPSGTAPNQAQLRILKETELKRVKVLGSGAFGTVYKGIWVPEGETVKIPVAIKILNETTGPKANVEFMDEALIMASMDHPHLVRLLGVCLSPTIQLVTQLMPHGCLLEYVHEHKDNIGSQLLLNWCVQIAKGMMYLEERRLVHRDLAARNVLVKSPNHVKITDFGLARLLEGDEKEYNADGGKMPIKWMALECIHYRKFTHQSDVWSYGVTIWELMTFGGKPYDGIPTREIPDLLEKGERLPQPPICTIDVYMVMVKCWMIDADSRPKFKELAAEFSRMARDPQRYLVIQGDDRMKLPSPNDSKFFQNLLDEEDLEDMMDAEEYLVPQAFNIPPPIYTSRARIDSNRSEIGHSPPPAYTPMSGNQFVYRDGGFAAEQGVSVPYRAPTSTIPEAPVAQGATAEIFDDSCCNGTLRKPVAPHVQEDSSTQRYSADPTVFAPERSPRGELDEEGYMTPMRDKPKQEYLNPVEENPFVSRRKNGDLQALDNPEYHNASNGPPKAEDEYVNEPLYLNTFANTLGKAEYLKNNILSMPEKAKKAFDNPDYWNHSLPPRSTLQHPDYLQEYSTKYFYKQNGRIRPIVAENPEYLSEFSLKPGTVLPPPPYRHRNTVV

NEK3(h) = target: T3, NEK3(h) (Homo sapiens, UniProt P51956)
T3 sequence (P51956 1-506): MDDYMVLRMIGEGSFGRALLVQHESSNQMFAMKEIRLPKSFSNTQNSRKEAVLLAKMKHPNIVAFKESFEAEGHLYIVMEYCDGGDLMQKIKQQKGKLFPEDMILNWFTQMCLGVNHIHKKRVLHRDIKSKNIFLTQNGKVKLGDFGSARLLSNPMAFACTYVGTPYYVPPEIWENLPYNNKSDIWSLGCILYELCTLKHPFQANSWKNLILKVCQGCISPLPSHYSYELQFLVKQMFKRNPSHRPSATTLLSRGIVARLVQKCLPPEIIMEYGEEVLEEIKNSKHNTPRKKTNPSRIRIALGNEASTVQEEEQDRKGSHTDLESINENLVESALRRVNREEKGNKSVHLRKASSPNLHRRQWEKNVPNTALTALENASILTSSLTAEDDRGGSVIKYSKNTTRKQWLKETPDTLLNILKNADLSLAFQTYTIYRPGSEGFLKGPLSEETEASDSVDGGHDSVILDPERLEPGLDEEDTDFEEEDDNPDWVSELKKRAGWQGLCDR

Row | Substance | activity at 100 µM (ZAP-70(h)) [%] | activity at 100 µM (TAO2(h)) [%] | activity at 100 µM (PAK4(h)) [%] | activity at 100 µM (ErbB4(h)) [%] | activity at 100 µM (NEK3(h)) [%] | % activity (ZAP-70(h)) [%] | % activity (TAO2(h)) [%] | % activity (PAK4(h)) [%] | % activity (ErbB4(h)) [%] | % activity (NEK3(h)) [%]
1 | H-YARAAARQARAKALARQLGVAA-OH [MMI-0100] | 79 | 95 | 92 | 73 | 100 | – | – | – | – | –
2 | HRRIKAWLKKIKALARQLGVAA (Mammalian) [MMI-0500] | – | – | – | – | – | 1 | 15 | 86 | 2 | 20
3 | YARAAARQARAKALNRQLGVA (Mammalian) [MMI-0200] | – | – | – | – | – | 58 | 93 | 98 | 82 | 100

Reference: patent US10087225B2, “Formulation of MK2 inhibitor peptides” (MOERAE MATRIX, INC., priority 2015, dated 2018)
